Data from publication doi:10.1101/2021.08.16.456495 (bioRxiv, 2021).

Key:
[1] = target: Transcobalamin (TC), B12-bound, as in the TC:TCblR complex (human, UniProt P20062); experiment: crystal structure
[2] = target: B12-bound complex of transcobalamin (TC) and its receptor TCblR (Homo sapiens); experiment: MST
[3] = target: Transcobalamin receptor TCblR (CD320), crystallization construct, as in the TC:TCblR complex (human, UniProt Q9NPF0); experiment: crystal structure
Sequence of Transcobalamin receptor TCblR (CD320), crystallization construct, as in the TC:TCblR complex (Q9NPF0 53-171, one chain of several): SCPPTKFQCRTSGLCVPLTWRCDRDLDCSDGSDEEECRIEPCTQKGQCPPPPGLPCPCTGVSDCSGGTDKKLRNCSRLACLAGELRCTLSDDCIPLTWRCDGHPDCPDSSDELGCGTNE

Sequence of B12-bound complex of transcobalamin (TC) and its receptor TCblR (Homo sapiens) (P20062 19-427 R227Q, chain 1 of 2): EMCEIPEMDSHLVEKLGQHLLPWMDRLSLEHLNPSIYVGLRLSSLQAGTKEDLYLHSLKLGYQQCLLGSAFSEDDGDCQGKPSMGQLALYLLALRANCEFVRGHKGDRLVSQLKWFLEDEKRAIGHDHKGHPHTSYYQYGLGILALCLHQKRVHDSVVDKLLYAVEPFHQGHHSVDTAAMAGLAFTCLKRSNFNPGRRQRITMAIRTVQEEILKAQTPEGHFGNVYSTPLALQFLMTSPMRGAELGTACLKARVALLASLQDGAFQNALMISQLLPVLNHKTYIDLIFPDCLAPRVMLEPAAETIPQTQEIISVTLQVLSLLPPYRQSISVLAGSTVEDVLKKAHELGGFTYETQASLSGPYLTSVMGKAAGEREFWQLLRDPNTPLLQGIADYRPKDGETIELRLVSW
Sequence of B12-bound complex of transcobalamin (TC) and its receptor TCblR (Homo sapiens) (Q9NPF0 53-171, chain 2 of 2, further chain): as the sequence (Q9NPF0 53-171, one chain of several) above
Sequence of Transcobalamin (TC), B12-bound, as in the TC:TCblR complex (P20062 19-427, one chain of several): as the sequence (P20062 19-427 R227Q, chain 1 of 2) above, with Q209R counted along it

Row | Binder | binding result [1] | Kd [2] | binding result [3]
1 | Nanobody TCNB11 (VHH) VHH: QLQLVESGGGLVQAGGSLRLSCTASGRTGTMGWFRQGPGKEREFVASHKWVAGSTYYADSVKGRFTISRDNAKNTLYLQMNSLKSEDTAVYYCAASSQIFYGATTSIKDFNSWGKGTRVTVSS | binds | – | –
2 | Nanobody TCNB26 (VHH) VHH: QVQLVESGGGLVQAGESLRLSCAASGRTFAMAWFRQAPGKEREFVAVRGWLGVTTYYADSVKGRFTISRDNAKNTLDLQMNSLKPEDTAVYYCAAGQYSSSLYDRETEYNYWGQGTRVTVSS | binds | 87.4 nM | –

More lines, now with the values ahead:

Row | binding result [1] | Kd [2] | binding result [3] | Binder
3 | binds | 5.2 nM | binds | Nanobody TCNB4 (VHH) VHH: QRQLVESGGGLVQPGGSLRLSCAASGFTPGIYDIGWFRQAPGKEREGVSCISSRGSSTNYADSVKGRFIISRDNVKNTVYLQMNSLEPEDTAVYYCAAIYQPSNGCVLRPEYSYWGKGTPVTVSS
4 | binds | 12.8 nM | – | Nanobody TCNB34 (VHH) VHH: QWQLVESGGGLVQPGGSLRLSCAASGSTFSSYAMGWYRQAPGKECELVAAISRAGGSTNYADSVKGRFTISRDNAKNTVYLQMNSLKPEDTAVYYCNAAAEGETGSNWSLCEEYDYWGKGTRVTVSS
